Experimental data reported in the supplement of paper PMC10598134.
± gives the standard deviation.

Experiment: collision cross section of modified peptide (TIMS, N2, iRT-aligned); higher = larger / more extended gas-phase ion
Experimental: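 1/K0 was aligned run-wise to spiked iRT peptides and converted to CCS in N2 (Mason-Schamp). Values are the mean of 1-3 technical replicates for the most abundant feature at each charge state.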

[1] = charge state: 2, modification: Glutarylation
[2] = charge state: 3, modification: Glutarylation
[3] = charge state: 2, modification: Crotonyl
[4] = charge state: 2, modification: Formyl
[5] = charge state: 2, modification: Hydroxyproline
[6] = charge state: 2, modification: Methyl (K)
[7] = charge state: 3, modification: Methyl (K)
[8] = charge state: 2, modification: Biotin
[9] = charge state: 2, modification: Methyl (R)
[10] = charge state: 3, modification: Methyl (R)
[11] = charge state: 2, modification: Nitro (Y)
[12] = charge state: 3, modification: Formyl
[13] = charge state: 2, modification: Dimethyl (K)
[14] = charge state: 3, modification: Dimethyl (K)
[15] = charge state: 2, modification: Trimethyl (K)
[16] = charge state: 3, modification: Trimethyl (K)
[17] = charge state: 2, modification: Malonyl
[18] = charge state: 2, modification: hydroxyisobutyryl
[19] = charge state: 2, modification: Succinyl
[20] = charge state: 3, modification: Succinyl
[21] = charge state: 3, modification: HexNAc (ST)
[22] = charge state: 3, modification: hydroxyisobutyryl
[23] = charge state: 2, modification: Propionyl
[24] = charge state: 3, modification: GlyGly (K)
[25] = charge state: 3, modification: Malonyl
[26] = charge state: 2, modification: Butyryl
[27] = charge state: 3, modification: Hydroxyproline
[28] = charge state: 2, modification: HexNAc (ST)

VQGGALEDSQLVAGVAFKK [_VQGGALEDSQLVAGVAFK(Gluratylation)K_]
collision cross section [1]: 484.97 ± 2 Å² | collision cross section [2]: 564.26 Å²

VLDSGAPIKIPVGPETLGR [_VLDSGAPIK(Crotonyl)IPVGPETLGR_]
collision cross section [3]: 470.51 ± 1.1 Å² | collision cross section (charge state: 3, modification: Crotonyl): 511.83 ± 1.6 Å²

ITASLCDLKSR [_ITASLCDLK(Gluratylation)SR_]
collision cross section [1]: 391.61 ± 1.4 Å²

KFGVLSDNFK [_K(Formyl)FGVLSDNFK_]
collision cross section [4]: 368.1 ± 0.89 Å²

IHVQSSSDSSDEPAEKR [_IHVQSSSDSSDEPAEK(Gluratylation)R_]
collision cross section [1]: 455.23 ± 1.5 Å² | collision cross section [2]: 511.69 ± 2 Å²

GPPGPPGR [_GPPGPP(Hydroxyproline)GR_]
collision cross section [5]: 291.03 ± 0.88 Å²

YIEIYVQKVNPSR [_YIEIYVQK(Methyl (K))VNPSR_]
collision cross section [6]: 439.54 ± 1.7 Å² | collision cross section [7]: 505.56 ± 3.7 Å²

SKLLFSNTAAQK [_SK(Biotin)LLFSNTAAQK_]
collision cross section [8]: 417.26 ± 2.9 Å²

STNVTVAAARGIK [_STNVTVAAAR(Methyl (R))GIK_]
collision cross section [9]: 403.35 ± 0.97 Å² | collision cross section [10]: 483.31 ± 3.1 Å²

GVEAVGSYAENQR [_GVEAVGSY(Nitro (Y))AENQR_]
collision cross section [11]: 377.43 ± 0.17 Å² | collision cross section (charge state: 3, modification: Nitro (Y)): 473.04 ± 0.83 Å²

DAEAAEATAEGALKAEK [_DAEAAEATAEGALK(Formyl)AEK_]
collision cross section [4]: 428.82 ± 0.71 Å² | collision cross section [12]: 534.4 ± 0.57 Å²

VLTANSNPSSPSAAKR [_VLTANSNPSSPSAAK(Dimethyl (K))R_]
collision cross section [13]: 441.07 ± 1.1 Å² | collision cross section [14]: 518.06 ± 0.76 Å²

IQQELQTAKK [_IQQELQTAK(Methyl (K))K_]
collision cross section [6]: 376.86 ± 3.5 Å² | collision cross section [7]: 430.18 ± 6.1 Å²

SPDEAYAIAKK [_SPDEAYAIAK(Trimethyl (K))K_]
collision cross section [15]: 381.12 ± 1.2 Å² | collision cross section [16]: 449.09 Å²

GEQGEPGAPGIR [_GEQGEP(Hydroxyproline)GAPGIR_]
collision cross section [5]: 349.07 ± 0.25 Å²

GGGDRGGFGPGK [_GGGDR(Citrullination (R))GGFGPGK_]
collision cross section (charge state: 2, modification: Citrullination (R)): 334.18 ± 0.75 Å²

ASCLYGQLPK [_ASCLY(Phospho (Y))GQLPK_]
collision cross section (charge state: 2, modification: Phospho (Y)): 373.97 ± 0.65 Å²

INNFSADIKDSK [_INNFSADIK(Malonyl)DSK_]
collision cross section [17]: 398.58 ± 0.027 Å²

TVSKVDDFLANEAK [_TVSK(Biotin)VDDFLANEAK_]
collision cross section [8]: 445.28 ± 0.73 Å²

TLQKQSVVYGGK [_TLQK(hydroxyisobutyryl)QSVVYGGK_]
collision cross section [18]: 398.93 ± 0.3 Å²

LEQVEKELLR [_LEQVEK(Malonyl)ELLR_]
collision cross section [17]: 382.93 ± 0.62 Å²

SSGPGGQNVNKVNSK [_SSGPGGQNVNK(Trimethyl (K))VNSK_]
collision cross section [15]: 400.23 ± 1.6 Å² | collision cross section [16]: 442.26 ± 2.4 Å²

GADFLVTEVENGGSLGSKK [_GADFLVTEVENGGSLGSK(Succinyl)K_]
collision cross section [19]: 480.22 ± 1.1 Å² | collision cross section [20]: 554.56 Å²

DLGKFQVATDALK [_DLGK(Biotin)FQVATDALK_]
collision cross section [8]: 425.47 ± 0.89 Å²

SLIGKVDGTSHVTGK [_SLIGKVDGTSHVT(HexNAc (ST))GK_]
collision cross section [21]: 501.68 ± 0.18 Å²

DVNAAIAAIKTK [_DVNAAIAAIK(Methyl (K))TK_]
collision cross section [6]: 392.53 ± 0.95 Å² | collision cross section [7]: 462.62 ± 2.7 Å²

GGPGSTLSFVGKR [_GGPGSTLSFVGK(Succinyl)R_]
collision cross section [19]: 387.5 ± 0.76 Å² | collision cross section [20]: 434.26 Å²

IHNAENIQPGEQKYEYK [_IHNAENIQPGEQK(hydroxyisobutyryl)YEYK_]
collision cross section [18]: 491.39 ± 0.68 Å² | collision cross section [22]: 532.88 ± 2 Å²

FIHQQPQSSSPVYGSSAK [_FIHQQPQSSSPVYGS(HexNAc (ST))SAK_]
collision cross section [21]: 528.58 ± 0.18 Å²

SSFAYKDQNENR [_SSFAYK(Trimethyl (K))DQNENR_]
collision cross section [15]: 417.36 ± 0.75 Å² | collision cross section [16]: 458.31 ± 1.5 Å²

VNALKNLQVK [_VNALK(Propionyl)NLQVK_]
collision cross section [23]: 372.11 ± 0.65 Å²

TLQKQSVVYGGK [_TLQK(Biotin)QSVVYGGK_]
collision cross section [8]: 406.33 Å²

LGSPSGKTGTCR [_LGSPSGK(GlyGly (K))TGTCR_]
collision cross section [24]: 454.35 ± 1.5 Å²

HELQANCYEEVKDR [_HELQANCYEEVK(Malonyl)DR_]
collision cross section [25]: 477.83 ± 2.4 Å²

VGVEVPDVNIEGPEGKLK [_VGVEVPDVNIEGPEGK(Butyryl)LK_]
collision cross section [26]: 461.93 ± 0.5 Å²

GEPGIPAIPGIRGPK [_GEPGIP(Hydroxyproline)AIPGIRGPK_]
collision cross section [5]: 382.81 ± 0.54 Å² | collision cross section [27]: 511.46 ± 1.2 Å²

SLGEPAAGEGSAKR [_SLGEPAAGEGSAK(Trimethyl (K))R_]
collision cross section [15]: 404.92 ± 19 Å² | collision cross section [16]: 462.02 ± 2.7 Å²

SGFGKFER [_SGFGK(Crotonyl)FER_]
collision cross section [3]: 337.57 ± 1.3 Å²

PASGAGAGAGAGKR [_PASGAGAGAGAGK(Propionyl)R_]
collision cross section [23]: 359.78 ± 0.65 Å² | collision cross section (charge state: 3, modification: Propionyl): 464.2 ± 0.076 Å²

GRGTSQLAEGATAK [_GR(Methyl (R))GTSQLAEGATAK_]
collision cross section [9]: 391.78 ± 1.4 Å² | collision cross section [10]: 464.6 ± 2.7 Å²

TGGTQTDLFTCGKCK [_TGGTQTDLFTCGK(Malonyl)CK_]
collision cross section [17]: 436.14 ± 0.67 Å²

KYEEIDNAPEER [_K(Butyryl)YEEIDNAPEER_]
collision cross section [26]: 413.71 ± 1.1 Å² | collision cross section (charge state: 3, modification: Butyryl): 492.73 ± 3.5 Å²

TLQKQSVVYGGK [_TLQK(Trimethyl (K))QSVVYGGK_]
collision cross section [15]: 405 ± 1.6 Å² | collision cross section [16]: 449.39 ± 2.4 Å²

IVEKYGYTHLSAGELLR [_IVEK(GlyGly (K))YGYTHLSAGELLR_]
collision cross section [24]: 548.84 ± 0.37 Å²

GFCFITYTDEEPVKK [_GFCFITYTDEEPVK(GlyGly (K))K_]
collision cross section (charge state: 2, modification: GlyGly (K)): 487.35 ± 2.6 Å² | collision cross section [24]: 525.77 Å²

VGTASVLQPVKK [_VGTASVLQPVK(Crotonyl)K_]
collision cross section [3]: 387.11 ± 0.8 Å²

DYSSGFGGKYGVQADR [_DYSSGFGGK(Butyryl)YGVQADR_]
collision cross section [26]: 438.71 ± 1.6 Å²

GTVPDDAVEALADSLGKK [_GTVPDDAVEALADSLGK(Malonyl)K_]
collision cross section [17]: 454.67 ± 1.4 Å²

SLIGKVDGTSHVTGK [_SLIGKVDGT(HexNAc (ST))SHVTGK_]
collision cross section [28]: 438.41 Å²

IVFSGNLFQHQEDSKK [_IVFSGNLFQHQEDSK(Formyl)K_]
collision cross section [4]: 496.72 ± 1.3 Å² | collision cross section [12]: 530.13 ± 1.3 Å²

VLTANSNPSSPSAAKR [_VLTANSNPSSPSAAK(Trimethyl (K))R_]
collision cross section [15]: 445.51 ± 0.016 Å² | collision cross section [16]: 518.89 ± 1.6 Å²

GEVGAGAGPGAQAGPSAKR [_GEVGAGAGPGAQAGPSAK(hydroxyisobutyryl)R_]
collision cross section [18]: 426.95 ± 0.56 Å² | collision cross section [22]: 486.12 ± 1.9 Å²

ETTPSSLAVTQTMATK [_ETTPSSLAVTQT(HexNAc (ST))MATK_]
collision cross section [28]: 451.07 Å²

PGPKGEAGPTGPQGEPGVR [_P(Hydroxyproline)GPKGEAGPTGPQGEPGVR_]
collision cross section [5]: 432.55 ± 0.34 Å² | collision cross section [27]: 487.03 ± 3.2 Å²

GADFLVTEVENGGSLGSKK [_GADFLVTEVENGGSLGSK(Dimethyl (K))K_]
collision cross section [14]: 539.44 Å²

DSSPTTNSKLSALQR [_DSSPTTNSK(Dimethyl (K))LSALQR_]
collision cross section [13]: 423.14 ± 1.1 Å² | collision cross section [14]: 472.53 ± 1.6 Å²

APPIDRSILPTAPR [_APPIDR(Methyl (R))SILPTAPR_]
collision cross section [10]: 489.12 ± 2.5 Å²

LDEKENLSAK [_LDEK(Gluratylation)ENLSAK_]
collision cross section [1]: 373.82 ± 0.62 Å²

VYPSSLSK [_VY(Nitro (Y))PSSLSK_]
collision cross section [11]: 327.32 ± 0.71 Å²

ANLEKAQAELVGTADEATR [_ANLEK(Malonyl)AQAELVGTADEATR_]
collision cross section [17]: 476.69 ± 0.96 Å² | collision cross section [25]: 576.12 ± 0.95 Å²

LAEEENKAK [_LAEEENK(hydroxyisobutyryl)AK_]
collision cross section [18]: 355.52 ± 0.78 Å²

PSVGSQSNQAGQGKR [_PSVGSQSNQAGQGK(Dimethyl (K))R_]
collision cross section [13]: 425.54 ± 3 Å² | collision cross section [14]: 470.05 ± 1.2 Å²

DHLSDKESK [_DHLSDK(Crotonyl)ESK_]
collision cross section [3]: 361.16 ± 11 Å²

ISALQGKLSK [_ISALQGK(Trimethyl (K))LSK_]
collision cross section [15]: 359.1 ± 0.6 Å² | collision cross section [16]: 419.39 ± 1.8 Å²

PGGEGPQCEKTTDVK [_PGGEGPQCEK(hydroxyisobutyryl)TTDVK_]
collision cross section [18]: 425.58 ± 0.3 Å² | collision cross section [22]: 464.88 Å²

SSGPGGQNVNKVNSK [_SSGPGGQNVNK(Succinyl)VNSK_]
collision cross section [19]: 404.66 ± 0.55 Å² | collision cross section [20]: 443.1 ± 4 Å²
